From patent US20080201790A1, “Method and product for regulating cell responsiveness to external signals” (priority 1993, published 2008)

B1: MEKK 3: 626-amino acid MEK kinase protein, SEQ ID No. 10 (protein, listed as Mus musculus)
chain: MDEQEALDSIMKDLVALQMSRRTRLSGYETMKNKDTGHPNRQSDVRIKFEHNGERRIIAFSRPVRYEDVEHKVTTVFGQPLDLHYMNNELSILLKNQDDLDKAIDILDRSSSMKSLRILLLSQDRNHTSSSPHSGVSRQVRIKPSQSAGDINTIYQAPEPRSRHLSVSSQNPGRSSPPPGYVPERQQHIARQGSYTSINSEGEFIPETSEQCMLDPLSSAENSLSGSCQSLDRSADSPSFRKSQMSRARSFPDNRKECSDRETQLYDKGVKGGTYPRRYHVSVHHKDYNDGRRTFPRIRRHQGNLFTLVPSSRSLSTNGENMGVAVQYLDPRGRLRSADSENALTVQERNVPTKSPSAPINWRRGKLLGQGAFGRVYLCYDVDTGRELASKQVQFDPDSPETSKEVSALECEIQLLKNLQHERIVQYYGCLRDRAEKILTIFMEYMPGGSVKDQLKAYGALTESVTRKYTRQILEGMSYLHSNMIVHRDIKGANILRDSAGNVKLGDFGASKRLQTICMSGTGIRSVTGTPYWMSPEVISGEGYGRKADVWSLGCTVVEMLTEKPPWAEYEAMAAIFKIATQPTNPQLPSHISEHGRDFLRRIFVEARQRPSAEELLTHHFAQLVY
B2: MEKK 2: 619-amino acid MEK kinase protein, SEQ ID No. 6 / 8 (protein)
chain: MGYPYDVPDYASDDQQALNSIMQDLAVLHKPVGQHYLYKKPGKQNLHHQKNRMMFESNLNIEEEKRILQVTRPVKLEDLRSKSKIAFGQSMDLHYTNNELVIPLTTQDDLDKAVELLDRSIHMKSLKILLVVNGSTQATNLEPSPSPEDLNNTPLGAERKKRLSVVGPPNRDRSSPPPGYIPDILHQIARNGSFTSINSEGEFIPESMDQMLDPLSLSSPENSGSGSCPSLDSPLDGESYPKSRMPRAQSYPDNHQEFTDYDNPIFEKFGKGGTYPRRYHVSYHHQEYNDGRKTFPRARRTQGTSFRSPVSFSPTDHSLSTSSGSSVFTPEYDDSRIRRRGSDIDNPTLTVTDISPPSRSPRAPTNWRLGKLLGQGAFGRVYLCYDVDTGRELAVKQVQFNPESPETSKEVNALECEIQLLKNLLHERIVQYYGCLRDPQEKTLSIFMELSPGGSIKDQLKAYGALTENVTRKYTRQILEGVHYLHSNMIVHRDIKGANILRDSTGNIKLGDFGASKRLQTICLSGTGMKSVTGTPYWMSPEVISGEGYGRKADIWSVACTVVEMLTEKPPWAEFEAMAAIFKIATQPTNPKLPPHVSDYTRDFLKRIFVEAKLRPSAEELLRHMFVHYH

Tests used:
c-Jun kinase (JNK) = test: JNK activity in HEK293 cells transfected with MEKK 2 or 3; format: cell-based; conditions: for selectivity in activating JNK versus p42/44 MAPK: plasmid DNAs titrated over a range of concentrations; for c-Jun kinase (JNK) activity: transient expression in HEK293 cells
Description: JNK activity was measured using GSTc-Jun1-79) coupled to glutathione Sepharose 4B. Cells transfected with MEKK2 or 3 and control transfected cells were lysed in 0.5% Nonidet P-40, 20 mM Tris HCl, pH 7.6, 0.25 M NaCl, 3 mM EDTA, 3 mM EGTA, 1 mM dithiothreitol, 1 mM PMSFm 2 mM sodium vanadate, 20 ug/ml aprotinin, and 5 ug/ml leupeptin. Nuclei were removed by centrifugation at 15,000×g for 10 min and the supernatants (25 ug of protein) were mixed with 10 ul of a slurry of GST c-Jun(1-79) Sepharos (3-5 ug of GST cJun(1-79). The mixture was rotated at 4° C. for 1 h, washed twice in lysis buffer and once in kinase buffer (20 mM Hepes, pH 7.5, 10 mM MgCl2, 20 mM β-glycerophosphate, 10 mM p-nitrophenyl phosphate, 1 mM dithiothreitol, 50 uM sodium vanadate). Beads were suspended in 40 ul of kinase assay buffer containing 10 uCi of [γ32P]ATP and incubated at 30° C. for 20 min. Reaction mixtures were added to Laemmli sample buffer, boiled, and phosphorylated proteins were resolved on SDS-10% polyacrylamide gels. The JNK activity also eluted early from a Mono Q column using a linear sodium chloride elution gradient. […] When JNK activity was assayed following fractionation by Mono Q ion exchange chromatography, 50 ul of each fraction was incubated with the GST cJun(1-79) beads.

p42/44 MAPK = p42/44 MAPK activity in HEK293 cells transfected with MEKK 2 or 3; format: cell-based; conditions: transient expression in HEK293 cells
Description: MAPK activity following Mono Q FPLC fractionation was measured using the epidermal growth factor receptor […] peptide as a selective p42/44 MAPK substrate. Alternatively, for cells transfected with varying amounts of MEKK plasmids, MAPK activity was assayed after elution from DEAE Sephacel columns. […] Thus, even though the kinase domains are approximately 94% conserved, MEKK 2 and 3 differ in their selectivity for regulation of the JNK and p42/44^MAPK pathways. This was particularly evident for MEKK 3 at low plasmid concentrations where the p42/44^MAPK pathway was preferentially activated.

JNKK = target: T1, JNKK (Homo sapiens, UniProt P45985); test: In vitro kinase assay of immunoprecipitated HA-tagged MEKK with recombinant JNKK; format: biochemical; conditions: 12CA5 immunoprecipitates
T1 sequence (P45985 1-399): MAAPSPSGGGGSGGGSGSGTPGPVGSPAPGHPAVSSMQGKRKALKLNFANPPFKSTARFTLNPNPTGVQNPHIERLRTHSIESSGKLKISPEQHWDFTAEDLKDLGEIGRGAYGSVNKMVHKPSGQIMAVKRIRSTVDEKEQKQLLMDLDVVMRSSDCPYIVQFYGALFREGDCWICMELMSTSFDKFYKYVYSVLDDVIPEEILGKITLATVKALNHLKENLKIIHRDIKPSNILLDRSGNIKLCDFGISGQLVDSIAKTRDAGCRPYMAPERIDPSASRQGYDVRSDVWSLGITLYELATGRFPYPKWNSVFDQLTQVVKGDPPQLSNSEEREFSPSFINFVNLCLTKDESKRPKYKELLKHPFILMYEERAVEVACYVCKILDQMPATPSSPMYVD
Description: (§1) MEKK 2 Phosphorylates Both MEK 1 and JNK Kinase in Vitro. HEK293 cells expressing MEKK 2 and 3 were lysed in !% Triton x-100, 0.5% Nonidet P-40, 20 mM Tris HCL, pH 7.5, 150 mM NaCl, 20 mM NaF, 0.2 mM sodium vanadate, 1 mM EDTA, […], 1 mM EGTA, 5 mM PMSF. Nuclei were removed by centrifugation at 15,000×g for 5 min. HA epitope-tagged MEKK2 and 3 were immunoprecipitated with the 12CA5 antibody recognizing the HA epitope-tag. The immunoprecipitates were washed twice in lysis buffer, twice in PAN (10 mM Pipes, pH 7.0, 100 mM NaCl, 20 ug/ml aprotinin), suspended in 20 mM Pipes, 10 mM MnCl2, 20 ug/ml aprotinin, and used in an in vitro kinase assay with 20-50 ng of recombinant MEK1 or JNKK as substrates and 20 uCi of [γ^32P]ATP. Reactions were terminated by the addition of Laemmli sample buffer, boiled, and proteins were resolved by SDS-10% PAGE.
Incubations were for 30 min at 30° C. in the presence of 50 uM ATP. GST-cJun (1-79) Sepharose beads were then added, and the mixture was rotated at 4° C. for 30 min. The beads were washed, suspended in 40 ul of c-Jun kinase assay buffer containing 20 uCi of [γ32P]ATP, and incubated for 15 min at 30° C. Reaction mixtures were added to Laemmli sample buffer, boiled, and phosphorylated proteins were resolved on SDS 10% PAGE.

[1] = tested on: p42 and p44 forms of MAPK; test: Phosphorylation of p42 and p44 MAPK in COS cells transfected with MEKK 1 or MEKK 3; format: cell-based; conditions: forty-eight hours after transfection
Description: (§2) COS cells were transfected with the expression plasmid pCVM5 ligated to cDNA clones encoding either MEKK 1 or MEKK 3 protein, or a control pCVM5 plasmid lacking MEKK cDNA inserts. Forty-eight hours after transfection, the COS cells were lysed and the lysate fractionated on a Mono Q FPLC column using conditions described in Example 4. The fractions were analyzed for tyrosine phosphorylation of MAP kinase-like enzymes using the kinase assay described in Example 4.

MEK 1 = target: T2, MEK 1 (Mus musculus, UniProt P31938); test: In vitro kinase assay of immunoprecipitated HA-tagged MEKK with recombinant MEK1; format: biochemical; conditions: 12CA5 immunoprecipitates
T2 construct: polyhistidine (N); made in house; host or cells: pRSETA vector
Description: as §1

c-Jun kinase = c-Jun kinase activation in transfected COS cells; format: cell-based; conditions: expression in COS cells, FIG. 22
From the text: COS cells were transfected with pCMV5 expression plasmid encoding no cDNA insert (control), full length MEKK4 or the truncated MEKK4 encoding only the catalytic kinase domain.

p38 = p38 kinase activity in HEK293 cells transfected with MEKK 2 or 3; format: cell-based; conditions: immunoprecipitation and in vitro kinase assay
Description: The p38 kinase is activated by hyperosmotic conditions and recognizes the transcription factor ATF 2 as an in vitro substrate. Sorbitol treated (0.4M, 20 min) or control HEK293 cells were lysed in the same buffer as that used for immunoprecipitation of p38 using rabbit antiserum raised against the COOH terminal peptide sequence of p38. Immunoprecipitates were washed once in lysis buffer, once in assay buffer (25 mM Hepes, pH 7.4, 25 mM β-glycerophosphate, 25 mM […], 2 mM dithiothreitol, 0.1 mM sodium vanadate) resuspended, and used in an in vitro kinase assay with a recombinant NH2-terminal fragment of ATF 2 (20-50 ng). For analysis of p38 kinase activity from Mono Q FPLC fractions, 20 ul aliquots were mixed with kinase buffer containing 20-50 ng of recombinant ATF 2 and 10 uCi of [γ32P]PATP. Reactions were quenched in Laemmli sample buffer, boiled, and proteins were resolved using SDS 10% PAGE. […] Mono Q FPLC fractionation of lysates from MEKK 2 or 3 transfected HEK293 cells confirmed that p38 kinase activity was similar to that from control transfected cells. ATF 2 is also a substrate for JNK. Fractions 2-8 from cells transfected with MEKK 2 or 3, that contain immunoreactive JNK, have increased kinase activity toward ATF 2. This is a predicted result based on the ability of both MEKK 2 and 3 to stimulate JNK activity in HEK293 cells. […]

p38 MAPK = test: Tyrosine phosphorylation of p38 MAPK in COS cells transfected with MEKK 1 or MEKK 3; format: cell-based; conditions: forty-eight hours after transfection
Description: as §2

| Molecule | selectivity in activating JNK versus p42/44 MAPK (c-Jun kinase (JNK)) | c-Jun kinase (JNK) activity (c-Jun kinase (JNK)) | p42/44 MAPK activity (p42/44 MAPK) | phosphorylation of JNKK in vitro (JNKK) | phosphorylation of p42 and p44 MAPK [1] | phosphorylation of MEK 1 in vitro (MEK 1) | activation of the c-Jun kinase pathway (c-Jun kinase) | p38 kinase activity (p38) | phosphorylation of p38 MAPK (p38 MAPK) |
| --- | --- | --- | --- | --- | --- | --- | --- | --- | --- |
| B1 | greater selectivity for activating p42/44 MAPK relative to JNK | stimulation of c-Jun kinase (JNK) activity | stimulated p42/44^MAPK activity | did not show measurable kinase activity toward MEK 1 or JNKK | induces tyrosine phosphorylation | did not show measurable kinase activity toward MEK 1 or JNKK | also activate the c-Jun kinase pathway | neither MEKK 2 nor MEKK 3 stimulated p38 kinase activity | induces tyrosine phosphorylation of p38 MAPK |
| B2 | greater selectivity for stimulation of the JNK pathway | stimulation of c-Jun kinase (JNK) activity | stimulated p42/44^MAPK activity | clearly phosphorylates both MEK 1 and JNKK |  | clearly phosphorylates both MEK 1 and JNKK | also activate the c-Jun kinase pathway | neither MEKK 2 nor MEKK 3 stimulated p38 kinase activity |  |
